Experiment [1] deals with ribosomal protein uL24 (E. coli (endogenous in E. coli KC6), UniProt P60624 1-104). Put plainly: cryo-EM structure; TnaC-stalled I27[L = 35] ribosome-nascent chain complexes purified from E. coli by the His tag; average resolution 3.2 Å, I27 density ~4.5- to 9-Å; rigid-body fit of PDB 1TIT and PDB 4UY8, uL24 β hairpin remodeled. The conditions noted are these: both partners purified.

The target of experiment [2] is ribosomal protein uL29 (E. coli (endogenous in E. coli KC6), UniProt P0A7M6 1-63). The experiment is described as above. The conditions noted are these: both partners purified.

B1: N-terminally His-tagged I27-TnaC[L = 35] nascent chain (titin I27 domain, linker, TnaC arrest peptide), stalled on the ribosome (other)
chain: MDMGHHHHHHHHDYDIPTTLEVLFQGPGTLIEVEKPLYGVEVFVGETAHFEIELSEPDVHGQWKLKGQPLAASPDCEIIEDGKKHILILHNCQLGMTGEVSFQAANTKSAANLKVKELSGSGSGSGGPNILHISVTSKWFNIDNKIVDHRP
modifications: nascent chain held as peptidyl-tRNA on the stalled ribosome
notes: N-terminal leader of the construct as printed; it holds the 8X His tag itself; titin I27 Ig domain, 89-residue construct; numbers count on: the I27 domain itself (L1-L89); linker between I27 and the TnaC arrest peptide; TnaC arrest peptide; also called I27[L = 35]; not shown: His8, N-terminal, kept
As for B1, the binding result in experiment [1] and in experiment [2] was “binds” in each case.

The values above are taken from publication PMC6275497, “Folding pathway of an Ig domain is conserved on and off the ribosome” (Proceedings of the National Academy of Sciences of the …, 2018).
